The series concerns the molecule itself. The series can be described thus: non-reducing and reducing SDS gel electrophoresis with immunoblot; conditioned medium of BMSCs transduced with AAV-CRLF1; NuPAGE SDS sample buffer without and with reducing agent, 70 °C for 10 min, 10% bis-Tris gels; blotted with antibodies specific for CRLF1 or CLC.

Usually stoichiometry N stands for a count of units in the complex or per binding partner.

B1: Cytokine receptor-like factor 1 (CRLF1) (natural protein, human, UniProt O75462 38-422, looked up)
chain: AHTAVISPQDPTLLIGSSLLATCSVHGDPPGATAEGLYWTLNGRRLPPELSRVLNASTLALALANLNGSRQRSGDNLVCHARDGSILAGSCLYVGLPPEKPVNISCWSKNMKDLTCRWTPGAHGETFLHTNYSLKYKLRWYGQDNTCEEYHTVGPHSCHIPKDLALFTPYEIWVEATNRLGSARSDVLTLDILDVVTTDPPPDVHVSRVGGLEDQLSVRWVSPPALKDFLFQAKYQIRYRVEDSVDWKVVDDVSNQTSCRLAGLKPGTVYFVQVRCNPFGIYGSKKAGIWSEWSHPTAASTPRSERPGPGGGACEPRGGEPSSGPVRRELKQFLGWLKKHAYCSNLSFRLYDQWRAWMQKSHKTRNQDEGILPSGRRGTARGPAR
notes: Cytokine receptor-like factor 1, human, full-length cDNA cloned into an AAV vector; released into the medium by BMSCs; Full-length cDNA was cloned into the backbone pENN.AAV.CB7.Cl.eGFP.WPRE.rBG (Addgene 105542 is the vector, not this construct); Bands: ~110 kDa non-reduced, 55 kDa reduced; also called CRLF1dim; CRLF1mon; source: human BMSCs transduced with AAV containing CRLF1, in conditioned …
Turning to B1, the “stoichiometry N” value was 2.
